First the molecules themselves.
B1: FAM46C (parent)
chain: VRSRLEEAGIKVHDVRLNGSAAGH
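Further: lentivirally expressed fusions sorted by FACS into six bins by GFP to DsRed ratio, PSI derived from sequencing read proportions per bin multiplied by bin number.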

Variants of B1 are the subject of the data set. Briefly: protein stability index of a GFP-peptide fusion (GPS, HEK-293T) (PSI 1-6); higher = more stable. Particulars: c terminus: a fixed tail appended.
VRSRLEEAGIKVHDVRLNGSAAGS [H24S]: the protein stability index came out at 3.07.

For VRSRLEEAGIKVHDVRLNGSAAGM [H24M], the protein stability index is 2.15.

On to VRSRLEEAGIKVHDVRLNGSAAGW [H24W], for which the protein stability index is 3.51.

On to VRSRLEEAGIKVHDVRLNGSAAGA [H24A], for which the protein stability index is 3.06.

For VRSRLEEAGIKVHDVRLNGSAAGE [H24E], the protein stability index amounted to 3.66.

For VRSRLEEAGIKVHDVRLNGSAAGN [H24N], the protein stability index is 3.78.

Consider VRSRLEEAGIKVHDVRLNGSAAGI [H24I], for which the protein stability index amounted to 2.01.

For the variant VRSRLEEAGIKVHDVRLNGSAAGD [H24D], the protein stability index came to 2.7.

For the variant VRSRLEEAGIKVHDVRLNGSAAGP [H24P], the protein stability index worked out at 2.76.

Take VRSRLEEAGIKVHDVRLNGSAAGQ [H24Q]: the protein stability index stood at 2.67.

On to VRSRLEEAGIKVHDVRLNGTAAGH [S20T], for which the protein stability index came to 1.56.

In the case of VRSRLEEAGIKVHDVRLNGAAAGH [S20A], the protein stability index was 2.61.

Consider VRSRLEEAGIKVHDVRLNGPAAGH [S20P], for which the protein stability index stood at 1.95.

Regarding VRSRLEEAGIKVHDVRLNGCAAGH [S20C], the protein stability index was determined as 2.45.

Consider VRSRLEEAGIKVHDVRLNGFAAGH [S20F], for which the protein stability index amounted to 1.35.

As to VRSRLEEAGIKVHDVRLNGKAAGH [S20K], the protein stability index was 2.28.

In the case of VRSRLEEAGIKVHDVRLNGNAAGH [S20N], the protein stability index was found to be 3.2.

Take VRSRLEEAGIKVHDVRLNGHAAGH [S20H]: the protein stability index is 2.16.

As for VRSRLEEAGIKVHDVRLNGLAAGH [S20L], the protein stability index stood at 2.

For VRSRLEEAGIKVHDVRLNGGAAGH [S20G], the protein stability index is 1.94.

Consider VRSRLEEAGIKVHDVRLNGVAAGH [S20V], for which the protein stability index was 2.61.

For VRSRLEEAGIKVHDVRLNGQAAGH [S20Q], the protein stability index came out at 2.63.

As for VRSRLEEAGIKVHDVYLNGSAAGH [R16Y], the protein stability index was 2.64.

In the case of VRSRLEEAGIKVHDVVLNGSAAGH [R16V], the protein stability index was found to be 2.63.

As to VRSRLEEAGIKVHDVHLNGSAAGH [R16H], the protein stability index is 2.54.

On to VRSRLEEAGIKVHDVDLNGSAAGH [R16D], for which the protein stability index amounted to 4.37.

In the case of VRSRLEEAGIKVHDVELNGSAAGH [R16E], the protein stability index is 4.63.

In the case of VRSRLEEAGIKVHDVFLNGSAAGH [R16F], the protein stability index turned out to be 2.25.

Regarding VRSRLEEAGIKVHDVSLNGSAAGH [R16S], the protein stability index is 2.68.

Take VRSRLEEAGIKVHDVKLNGSAAGH [R16K]: the protein stability index came to 2.49.

With VRSRLEEAGIKVHDVQLNGSAAGH [R16Q], the protein stability index was 2.68.

As to VRSRLEEAGIKVHDVWLNGSAAGH [R16W], the protein stability index is 1.66.

Regarding VRSRLEEAGIKVHDVRLNHSAAGH [G19H], the protein stability index is 2.54.

Regarding VRSRLEEAGIKVHDVRLNDSAAGH [G19D], the protein stability index was 2.26.

VRSRLEEAGIKVHDVRLNISAAGH [G19I]: the protein stability index is 3.83.

VRSRLEEAGIKVHDVRLNESAAGH [G19E]: the protein stability index was found to be 3.77.

Regarding VRSRLEEAGIKVHDVRLNLSAAGH [G19L], the protein stability index stood at 2.16.

As for VRSRLEEAGIKVHDVRLNFSAAGH [G19F], the protein stability index was 2.44.

Consider VRSRLEEAGIKVHDVRLNPSAAGH [G19P], for which the protein stability index stood at 1.55.

In the case of VRSRLEEAGIKVHDVRLNQSAAGH [G19Q], the protein stability index was 2.74.

For VRSRLEEAGIKVHDVRLNMSAAGH [G19M], the protein stability index was found to be 1.83.

VRSRLEEAGIKVHDVRLNASAAGH [G19A]: the protein stability index worked out at 2.19.

Turning to VRSRLEEAGIKVHDVRLNSSAAGH [G19S], the protein stability index was found to be 2.09.

For VRSRLEEAGIKVHDVRLNVSAAGH [G19V], the protein stability index stood at 1.79.

Consider VRSRLEEAGIKVHDVRLNTSAAGH [G19T], for which the protein stability index was 1.74.

On to VRSRLEEAGIKVHDVRLNRSAAGH [G19R], for which the protein stability index is 2.22.

For VRSRLEEAGIKVHDVRLNGSAAIH [G23I], the protein stability index is 1.6.

For VRSRLEEAGIKVHDVRLNGSAANH [G23N], the protein stability index worked out at 2.55.

Consider VRSRLEEAGIKVHDVRLNGSAAYH [G23Y], for which the protein stability index turned out to be 2.18.

As to VRSRLEEAGIKVHDVRLNGSAAQH [G23Q], the protein stability index worked out at 1.2.

For VRSRLEEAGIKVHDVRLNGSAAWH [G23W], the protein stability index was found to be 2.18.

VRSRLEEAGIKVHDVRLNGSAASH [G23S]: the protein stability index turned out to be 2.6.

With VRSRLEEAGIKVHDVRLNGSAADH [G23D], the protein stability index worked out at 2.44.

In the case of VRSRLEEAGIKVHDVRLNGSAALH [G23L], the protein stability index is 1.64.

On to VRSRLEEAGIKVHDVRLNGSAARH [G23R], for which the protein stability index was determined as 2.38.

With VRSRLEEAGIKVHDVRLNGSAAVH [G23V], the protein stability index was 1.82.

Regarding VRSRLEEAGIKVHDVRLNGSAAHH [G23H], the protein stability index worked out at 2.85.

Consider VRSRLEEAGIKVHDVRLNGSAATH [G23T], for which the protein stability index is 3.09.

In the case of VRSRLEEAGIKVHDVRLNGSAAMH [G23M], the protein stability index is 1.62.

On to VRSRLEEAGIKVHDVRLNGSAAFH [G23F], for which the protein stability index came to 2.94.

Consider VRSRLEEAGIKVHDVRLNGSAAEH [G23E], for which the protein stability index turned out to be 2.3.

On to VRSRLEEAGIKVHDVRLNGSAACH [G23C], for which the protein stability index is 1.64.

Consider VRSRLEEAGIKVHDVRLNGSAAAH [G23A], for which the protein stability index worked out at 2.92.

On to VRSRLEEAGIKVHDVRLNGSAAKH [G23K], for which the protein stability index was 2.25.

Regarding VRSRLEEAGIKVHDVRLNGSGAGH [A21G], the protein stability index was 3.12.

Turning to VRSRLEEAGIKVHDVRLNGSEAGH [A21E], the protein stability index stood at 2.53.

For the variant VRSRLEEAGIKVHDVRLNGSTAGH [A21T], the protein stability index stood at 2.51.

For VRSRLEEAGIKVHDVRLNGSCAGH [A21C], the protein stability index was 1.73.

Turning to VRSRLEEAGIKVHDVRLNGSWAGH [A21W], the protein stability index was determined as 1.56.

As for VRSRLEEAGIKVHDVRLNGSPAGH [A21P], the protein stability index was 1.8.

For VRSRLEEAGIKVHDVRLNGSKAGH [A21K], the protein stability index turned out to be 4.25.

With VRSRLEEAGIKVHDVRLNGSSAGH [A21S], the protein stability index was 2.32.

With VRSRLEEAGIKVHDVRLNGSDAGH [A21D], the protein stability index came out at 3.13.

As to VRSRLEEAGIKVHDVRLNGSYAGH [A21Y], the protein stability index stood at 1.56.

Regarding VRSRLEEAGIKVHDVRLNGSRAGH [A21R], the protein stability index worked out at 2.83.

As to VRSRLEEAGIKVHDVRLNGSIAGH [A21I], the protein stability index came to 2.44.

In the case of VRSRLEEAGIKVHDVRLNGSQAGH [A21Q], the protein stability index came to 1.72.

For the variant VRSRLEEAGIKVHDVRLSGSAAGH [N18S], the protein stability index was 4.1.

As to VRSRLEEAGIKVHDVRLEGSAAGH [N18E], the protein stability index was 1.53.

In the case of VRSRLEEAGIKVHDVRLYGSAAGH [N18Y], the protein stability index came to 1.62.

Turning to VRSRLEEAGIKVHDVRLLGSAAGH [N18L], the protein stability index is 1.16.

Regarding VRSRLEEAGIKVHDVRLKGSAAGH [N18K], the protein stability index is 3.56.

With VRSRLEEAGIKVHDVRLGGSAAGH [N18G], the protein stability index was found to be 2.02.

For VRSRLEEAGIKVHDVRLWGSAAGH [N18W], the protein stability index is 2.13.

In the case of VRSRLEEAGIKVHDVRLCGSAAGH [N18C], the protein stability index worked out at 2.64.

For the variant VRSRLEEAGIKVHDVRLQGSAAGH [N18Q], the protein stability index was determined as 1.96.

In the case of VRSRLEEAGIKVHDVRLDGSAAGH [N18D], the protein stability index turned out to be 2.81.

Regarding VRSRLEEAGIKVHDVRLMGSAAGH [N18M], the protein stability index turned out to be 3.59.

In the case of VRSRLEEAGIKVHDVRLPGSAAGH [N18P], the protein stability index came out at 3.12.

As for VRSRLEEAGIKVHDVRLTGSAAGH [N18T], the protein stability index was 1.87.

For VRSRLEEAGIKVHDVRLVGSAAGH [N18V], the protein stability index came out at 2.7.

In the case of VRSRLEEAGIKVHDPRLNGSAAGH [V15P], the protein stability index was determined as 3.65.

With VRSRLEEAGIKVHDSRLNGSAAGH [V15S], the protein stability index was determined as 3.35.

For the variant VRSRLEEAGIKVHDLRLNGSAAGH [V15L], the protein stability index worked out at 2.76.

Values taken from the supplement of paper PMC10567573.
